According to US20240228612A1 (SICHUAN KELUN BIOTECH BIOPHARMACEUTICAL, published 2024):

T1: human Nectin-4 on cell membrane surface (human, UniProt Q96NY8 32-510)
T1 construct: whole, on cells; also called A549-Nectin-4; T24-Nectin-4
T1 sequence (looked up): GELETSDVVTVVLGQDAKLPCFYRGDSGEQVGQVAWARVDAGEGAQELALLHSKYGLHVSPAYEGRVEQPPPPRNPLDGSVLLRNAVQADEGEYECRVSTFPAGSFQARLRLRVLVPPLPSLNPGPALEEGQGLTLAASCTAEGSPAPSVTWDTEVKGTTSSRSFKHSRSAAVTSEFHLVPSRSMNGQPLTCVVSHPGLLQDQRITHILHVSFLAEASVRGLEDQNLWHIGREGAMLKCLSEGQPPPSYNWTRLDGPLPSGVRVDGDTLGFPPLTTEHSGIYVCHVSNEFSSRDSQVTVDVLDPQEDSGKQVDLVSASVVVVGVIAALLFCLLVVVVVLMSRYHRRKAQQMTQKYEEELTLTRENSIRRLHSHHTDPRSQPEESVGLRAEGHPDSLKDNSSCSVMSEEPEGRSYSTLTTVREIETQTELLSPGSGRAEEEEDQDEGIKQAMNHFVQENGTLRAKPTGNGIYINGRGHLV

T2: two IgC domains of human Nectin-4 overexpressed on A549 cells (human, UniProt Q96NY8 148-349, limits assumed)
T2 construct: domain: two IgC domains; also called A549-Nectin-4-IgCC
T2 sequence (looked up): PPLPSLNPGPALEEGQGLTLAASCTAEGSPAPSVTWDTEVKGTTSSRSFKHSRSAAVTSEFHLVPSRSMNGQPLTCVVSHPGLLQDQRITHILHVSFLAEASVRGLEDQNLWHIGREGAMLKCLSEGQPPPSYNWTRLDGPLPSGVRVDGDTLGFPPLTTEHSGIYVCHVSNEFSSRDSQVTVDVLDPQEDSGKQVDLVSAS

T3: human Nectin-1 antigen (human, UniProt Q15223 31-334, limits assumed)
T3 sequence (looked up): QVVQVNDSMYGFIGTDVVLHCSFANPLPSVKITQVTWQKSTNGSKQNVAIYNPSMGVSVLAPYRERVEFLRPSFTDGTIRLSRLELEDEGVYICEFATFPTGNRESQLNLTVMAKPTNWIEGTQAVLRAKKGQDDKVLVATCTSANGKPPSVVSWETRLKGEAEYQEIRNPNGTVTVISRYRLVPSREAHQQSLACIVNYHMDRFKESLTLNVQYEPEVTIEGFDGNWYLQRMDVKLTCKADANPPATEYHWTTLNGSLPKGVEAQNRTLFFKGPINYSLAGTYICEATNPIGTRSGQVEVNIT


Key:
[1] = molecular target: T1, human Nectin-4 on cell membrane surface; assay: flow cytometry on NCI-N87 cells
[2] = molecular target: T2, two IgC domains of human Nectin-4 …; assay: flow cytometry on A549-Nectin-4-IgCC cells
Text: Human Nectin-4 contains one IgV domain and two IgC domains. To determine the binding domain of the anti-human Nectin-4 humanized monoclonal antibodies, an A549 stable cell line A549-Nectin-4-IgV overexpressing Nectin-4 IgV domain, and an A549 stable cell line A549-Nectin-4-IgCC overexpressing two IgC domains of Nectin-4 were constructed, and the binding domains of the antibody to be tested were detected by flow cytometry. The specific steps were as follows: A549-Nectin-4-IgV and A549-Nectin-4-IgCC cells were digested, resuspended by centrifugation, washed twice with PBS; the cells were resuspended with PBS (containing 1% BSA), and spread at 300,000 cells/well into a 96-well tip-bottom plate, 50 μl per well; 50 μL of the antibody to be tested at a final concentration of 40 μg/mL was added to each well, and Human IgG was used as a negative control; after being mixed well, the resulting mixture was reacted in the dark at 4° C. for 1 hour; washing was performed 3 times with PBS, FITC-labeled anti-human Fc secondary antibody (brand: BioLegend, product number: 409322) was added, incubated at 4° C. for 0.5 hours in the dark; washing was performed 3 times with PBS, and detection was carried out using a flow cytometer (flow cytometer brand: Beckman, model: Cytoflex).

human Nectin-1 antigen = molecular target: T3, human Nectin-1 antigen; assay: ELISA, coated human Nectin-1, anti-human-HRP
Experimental: The Nectin family includes members of Nectin-1, Nectin-2, Nectin-3 and Nectin-4, and the members share a sequence identity of about 25%, but have similar structure and function. […] The specific steps were as follows: human Nectin-1, Nectin-2, Nectin-3 and Nectin-4 antigens were diluted to 1 μg/mL with CBS coating solution, coated on an ELISA plate at 100 μL per well, and standed overnight at 4° C.; the liquid in the well was discarded on the next day, and washing was performed once with 300 μL of PBS; 100 μL of PBS (containing 2% BSA) was added, and blocking was performed at 37° C. for 2 hours; 31HZ, 56HZ, 74HZ and Enfortumab antibodies were diluted with PBS (containing 2% BSA), 100 μL was taken and added to the corresponding well, incubated at 37° C. for 2 hours; washing was performed 3 times with 300 μL of PBST; HRP-labeled goat anti-human secondary antibody was diluted at a ratio of 1:10000 with PBS (containing 2% BSA), 100 μL was taken and added to the corresponding well, incubation was performed at 37° C. for 1 hour; washing was performed 5 times with 300 μL of PBST; 100 μL of TMB color development solution was added to the corresponding well, and color development was performed at room temperature for 5-20 minutes; 50 μL of 2N H₂SO₄ was added for stopping, a microplate reader was used for collecting readings at OD450 nm, and the data were imported into Graphpad Prism for curve fitting.

[3] = molecular target: T1, human Nectin-4 on cell membrane surface; assay: flow cytometry on T47D cells
Experimental: The specific steps were as follows: T47D cells were digested, resuspended by centrifugation, and washed twice with PBS; the cells were resuspended in PBS (containing 1% BSA), and spread into a 96-well tip-bottom plate at 3×10⁵ cells/well, with a volume of 50 μl per well; 50 μL of the antibody to be tested was added to each well, starting at a final concentration of […], 4-fold gradient dilution, a total of 10 concentration points; Human IgG was used as a negative control; after being mixed well, the resulting mixture was reacted in the dark at 4° C. for 1 hour; washing was performed 3 times with PBS, FITC-labeled anti-human Fc secondary antibody (brand: BioLegend, product number: 409322) was added, incubated at 4° C. for 0.5 hours in the dark; washing was performed 3 times with PBS, and detection was carried out using a flow cytometer (flow cytometer brand: Beckman, model: Cytoflex).

Binder | EC50 [1] [µg/mL] | binding result [2] | binding result (human Nectin-1 antigen) | EC50 [3] [µg/mL]
anti-human Nectin-4 humanized monoclonal antibody 56HZ (antibody, human IgG1, kappa, V domains shown, Human IgG1 heavy chain constant region, human kappa light chain constant region; expressed in CHO-E cells) VH: QVQLQESGPGLVKPSQTLSLTCTVSGYFNSITSDYDWHWIRHHPGKGLEWMGYISFSGRTYYNPSLKSRVTISHDTSKNQFSLKLSSVTAADTAVYYCARGNYDGFDYWGQGTLVTVSS VL: DIVLTQSPATLSLSPGERATLSCRASQNIGTSIHWYQHKPGQSPRLLIKFASESISGIPARFSGSGSGTDFTLTISSLEPEDFAVYYCQQSKSWPTYTFGGGTKVEIKR | 0.0164 | no binding | no binding | 
anti-human Nectin-4 humanized monoclonal antibody 74HZ (antibody, human IgG1, kappa, V domains shown, Human IgG1 heavy chain constant region, human kappa light chain constant region; expressed in CHO-E cells) VH: QVQLVQSGAEVKKPGSSVKVSCKASGYTFINYWMNWVRQAPGQGLEWIGMIHPSDSATRLNQSFQGRVTLTVDKSTSTAYMELSSLRSEDTAVYYCARWGNFYTVNAWYYFDYWGQGTLVTVSS VL: DIVITQSPDSLAVSLGERATINCKSSQTLLNSNTQKNYLAWYQQKPGQSPKLLFYFASTRESGVPDRFSGSGSGTDFTLTISSLQAEDVAVYFCQQHYSTPLTFGQGTKLEIKR |  | no binding | no binding (tested: 10000 ng/mL) | 0.0223
anti-human Nectin-4 humanized monoclonal antibody 31HZ (antibody, human IgG1, kappa, V domains shown, Human IgG1 heavy chain constant region, human kappa light chain constant region; expressed in CHO-E cells) VH: QVQLVQSGAEVKKPGSSVKVSCKASGYTFTDYWMNWVRLAPGQGLEWIGMIHPSDSETRLNQKFQGRVTLTVDKSTSTAYMELSSLRSEDTAVYYCARWDFRIYYAMDYWGQGTLVTVSS VL: DVVITQSPDSLAVSLGERATINCKSSQSLLNTNSQKNYLAWYQQKPGQSPKLLVYFASTRESGVPDRFSGSGSGTDFTLTISSLQAEDVAVYFCQQHYSTPLTFGGGTKVEIKR |  | no binding | no binding (tested: 10000 ng/mL) | 0.0123
